Laboratory results reported in paper PMC13348673.

How the values were obtained:
[1] = biological target: Arp2/3 complex branch junction (sheep Arp2/3 complex bound to rabbit actin mother and daughter filaments) (sheep (endogenous in brain) | rabbit) (UniProt P68135)
[2] = biological target: Arp2/3 complex branch junction (sheep Arp2/3 complex bound to rabbit actin mother and daughter filaments) (sheep (endogenous in brain) | rabbit) (UniProt P68135); remark: listed apart in the source
[3] = biological target: Arp2/3 complex branch junction (sheep Arp2/3 complex bound to rabbit actin mother and daughter filaments) (sheep (endogenous in brain) | rabbit) (UniProt P68135); assay: microfluidics debranching assay under pulling force (TIRF microscopy of single branches); ADP-Arp2/3 branch junctions exposed to various GMF concentrations; constant average force 2.8 pN; 0.15 µM actin, 200 µM ATP; affinity from the fit of the saturation curve of the debranching rate

With “Mouse cortactin full length (amino acids 1–546) (from UniProt Q60598 1-546) (natural protein)” the stability (inverse debranching rate) of ADP-Arp2/3 complex branches at 6 pN with 20 nM cortactin against no cortactin [1] was 30 fold.
In the case of “Recombinant N-terminal 6xHis-tagged human GMFγ (amino acids 7–140) (from UniProt O60234 7-140) (natural protein)”, the debranching rate of ADP-Arp2/3 complex branch junctions against GMF concentration (2.8 pN, 0.15 µM actin, 200 µM ATP) [2] is reported as 6 fold and the Kd [3] is reported as 30 nM.
